Test results reported in patent publication US9937129B2, “Materials and methods for delivering compositions to selected tissues” (The Regents of the University of California, priority 2007, dated 2018).

Assays:
[1] = in vivo; cited from earlier work
[2] = Spontaneous adsorption and concentration of bevacizumab in porous SiO2; assay type: physicochemical; details: 0.125 mg/mL solution
Text: The affinity of a porous Si particle for a particular molecule can be controlled with surface chemistry. The surface of oxidized porous Si has a point of zero charge at a pH of around 2, and so it presents a negatively charged surface to most aqueous solutions of interest. At the appropriate pH, porous SiO2 spontaneously adsorbs positively charged proteins such as serum albumin, fibrinogen, protein A, immunoglobulin G (IgG), or horseradish peroxidase, concentrating them in the process. For example, a 0.125 mg/mL solution of the monoclonal antibody bevacizumab (trade name Avastin, an anti-cancer drug) spontaneously concentrates in suitably prepared porous SiO2 by a factor of >100.

[3] = cited from earlier work

Substance: bevacizumab [Avastin]
- Vitreous half-life of free drug [1]: 5 days
- Concentration factor in suitably prepared porous SiO2 [2]: > 100 factor
- IC50 [3]: 22 ng/mL
- Therapeutically relevant dose ([3]; intraocular): > 22 ng/mL
